The record followed here is US20030124121A1 (IMMUNEX, published 2003).

For assay [1], the target named is T1, human IL-4 receptor (human, UniProt P24394 26-232, limits assumed).
T1 construct: extracellular domain is 1 to 207 or -2 to 207 in that numbering; also called huIL-4R; IL-4Ralpha
As to the kind of experiment: hybridoma identification; assay not described.

Assay [2] addresses T1, human IL-4 receptor. As to the kind of experiment: assay not described.
For assay [3], the target named is T1, human IL-4 receptor. As to the kind of experiment: hybridoma screen for human gamma/kappa specific to IL-4R. The text has this:
The mouse was sacrificed, and spleen cells were extracted and fused with the murine myeloma cell line P3x63Ag8.653 (ATCC CRL 1580). A conventional PEG fusion protocol was followed. The fusion was screened for HuIgG and HuKappa, followed by a rescreen for human gamma and kappa specific to IL-4R. […] Techniques for altering (switching) the subclass/isotype of an antibody are known. […] Sequence information for a human IgG4 heavy chain is presented, for example, in Ellison et al. (DNA Vol. 1, no. 1, pp 11-18, 1981), which is hereby incorporated by reference herein.

B1: MAb 63 (antibody, IgM, V domains shown)
VH: EVQVLESGGNLVQPGGSLRLSCAASGFTFSSYAMSWVRQAPGKGLEWVSSITGSGGSTYYADSVKGRFTISRDNSKNTLYLQMNSLRAEDTAIFYCAKDNRGFFHYWGQGTLVTVSS
VL: DIQMTQSPSSVSASVGDRVTITCRASQGISTWLAWYQHKPGKAPKLLIYVASSLQSGVPSRFSGSGSGTDFTLTISSLQPEDFATYYCQQANSFPFTFGPGTKVDIK
notes: Fully human antibody
In the case of B1, in assay [1], the binding result is reported as “binds”.

B2: MAb 1B7 (antibody, V domains shown)
VH: B1 VH
VL: EIVLTQSPSSVSASVGDRVTITCRASQGISNRLAWYQQKPGKAPKLLIYIASILQRGVPSRFSGSGSGTDFTLTITRLQPEDFATYYCQQANSFPFTFGPGTKVDIK
notes: Derived from MAb 63; differs from it only in the light chain; heavy chain identical to MAb 63
Consider B2, for which the binding result in assay [2] was “binds”.

B3: MAb 27A1 (antibody, IgG1, V domains shown)
VH: QVQLVESGGGVVQPGRSLRLSCSASGFTFSRYGMHWVRQAPGRGLEWVAIIWFEGNNQYYADSVKGRFTVSRDNSKNTLYLEMNSLRAEDTAVYYCARGKYYFDYWGQGTLVTVSS
VL: not shown
notes: Fully human antibody
In the case of B3, the binding result in assay [1] is on record as “binds”.

B4: MAb 12B5 (antibody, human IgG1, V domains shown)
VH: EVQLVQSGGGLVHPGGSLRLSCAGSGFTFSRNAMFWVRQAPGKGLEWVSGIGTGGATNYADSVKGRFTISRDNAKNSLYLQMNSLRAEDMAVYYCARGRYYFDYWGQGTLVTVSS
VL: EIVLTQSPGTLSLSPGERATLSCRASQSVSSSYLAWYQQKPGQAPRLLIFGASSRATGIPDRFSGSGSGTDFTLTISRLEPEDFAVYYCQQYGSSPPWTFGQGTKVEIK
notes: also called clone 12B5
As to B4, the binding result in assay [3] is reported as “binds”.

B5: MAb 5A1 (antibody, IgG1, V domains shown)
VH: EVQLVQSGGGLVHPGGSLRLTCAGSGFTFSNFVMHWVRQTPGQGLEWVSAIGTGGGTYYADSVKGRFTISRDNAKSSLYLQMNSLRAEDMAVYYCARDRPMVRGVIIDYFDYWGQGTLVTVSS
VL: EIVLTQSPATLSLSPGERATLSCRASQSVSSYLAWYQQKPGQAPRLLIYHASNRATGIPARFSGSGSGTDFTLTISSLEPEDFAVYYCQQRSNWPLTFGGGTKVEIK
notes: Fully human antibody
Regarding B5, the binding result in assay [1] was “binds”.
